Source: PMC7367873, “Dissecting the sequence determinants for dephosphorylation by the catalytic subunits of phosphatases PP1 and PP2A” (Nature Communications, 2020)

What was measured:
GFP-14-3-3β = GFP-14-3-3β co-IP with LC-MS/MS, untreated GFP-14-3-3β versus GFP control (14-3-3 interactome); format: binding, human; settings: untreated vs GFP; label-free quantification
[1] = tested on: GFP-14-3-3β and its binding proteins; assay: GFP-14-3-3β co-IP with LC-MS/MS label-free quantification, untreated versus PP1c-treated; design: species or system human; settings: PP1 vs untreated; label-free quantification

Molecule | Difference (log2), PP1 vs untreated [1] [log2] | Difference (log2), untreated vs GFP (GFP-14-3-3β) [log2]
MGST1 (protein, UniProt P10620 1-155, looked up) Microsomal glutathione …: MVDLTQVMDDEVFMAFASYATIILSKMMLMSTATAFYRLTRKVFANPEDCVAFGKGENAKKYLRTDDRVERVRRAHLNDLENIIPFLGIGLLYSLSGPDPSTAILHFRLFVGARIYHTIAYLTPLPQPNRALSFFVGYGVTLSMAYRLLKSKLYL | 1.003 | 1.613
G3BP2 (protein, UniProt Q9UN86 2-482, looked up) Ras GTPase-activating …: VMEKPSPLLVGREFVRQYYTLLNKAPEYLHRFYGRNSSYVHGGVDASGKPQEAVYGQNDIHHKVLSLNFSECHTKIRHVDAHATLSDGVVVQVMGLLSNSGQPERKFMQTFVLAPEGSVPNKFYVHNDMFRYEDEVFGDSEPELDEESEDEVEEEQEERQPSPEPVQENANSGYYEAHPVTNGIEEPLEESSHEPEPEPESETKTEELKPQVEEKNLEELEEKSTTPPPAEPVSLPQEPPKAFSWASVTSKNLPPSGTVSSSGIPPHVKAPVSQPRVEAKPEVQSQPPRVREQRPRERPGFPPRGPRPGRGDMEQNDSDNRRIIRYPDSHQLFVGNLPHDIDENELKEFFMSFGNVVELRINTKGVGGKLPNFGFVVFDDSEPVQRILIAKPIMFRGEVRLNVEEKKTRAARERETRGGGDDRRDIRRNDRGPGGPRGIVGGGMMRDRDGRGPPPRGGMAQKLGSGRGTGQMEGRFTGQRR | 0.991 | 0.002451
ABCG2 (protein, UniProt Q9UNQ0 1-655, looked up) Broad substrate specificity …: MSSSNVEVFIPVSQGNTNGFPATASNDLKAFTEGAVLSFHNICYRVKLKSGFLPCRKPVEKEILSNINGIMKPGLNAILGPTGGGKSSLLDVLAARKDPSGLSGDVLINGAPRPANFKCNSGYVVQDDVVMGTLTVRENLQFSAALRLATTMTNHEKNERINRVIQELGLDKVADSKVGTQFIRGVSGGERKRTSIGMELITDPSILFLDEPTTGLDSSTANAVLLLLKRMSKQGRTIIFSIHQPRYSIFKLFDSLTLLASGRLMFHGPAQEALGYFESAGYHCEAYNNPADFFLDIINGDSTAVALNREEDFKATEIIEPSKQDKPLIEKLAEIYVNSSFYKETKAELHQLSGGEKKKKITVFKEISYTTSFCHQLRWVSKRSFKNLLGNPQASIAQIIVTVVLGLVIGAIYFGLKNDSTGIQNRAGVLFFLTTNQCFSSVSAVELFVVEKKLFIHEYISGYYRVSSYFLGKLLSDLLPMRMLPSIIFTCIVYFMLGLKPKADAFFVMMFTLMMVAYSASSMALAIAAGQSVVSVATLLMTICFVFMMIFSGLLVNLTTIASWLSWLQYFSIPRYGFTALQHNEFLGQNFCPGLNATGNNPCNYATCTGEEYLVKQGIDLSPWGLWKNHVALACMIVIFLTIAYLKLLFLKKYS | 0.9597 | -0.7786
ALDH18A1 (protein, UniProt P54886 1-795, looked up) Delta-1-pyrroline-5-carboxylat …: MLSQVYRCGFQPFNQHLLPWVKCTTVFRSHCIQPSVIRHVRSWSNIPFITVPLSRTHGKSFAHRSELKHAKRIVVKLGSAVVTRGDECGLALGRLASIVEQVSVLQNQGREMMLVTSGAVAFGKQRLRHEILLSQSVRQALHSGQNQLKEMAIPVLEARACAAAGQSGLMALYEAMFTQYSICAAQILVTNLDFHDEQKRRNLNGTLHELLRMNIVPIVNTNDAVVPPAEPNSDLQGVNVISVKDNDSLAARLAVEMKTDLLIVLSDVEGLFDSPPGSDDAKLIDIFYPGDQQSVTFGTKSRVGMGGMEAKVKAALWALQGGTSVVIANGTHPKVSGHVITDIVEGKKVGTFFSEVKPAGPTVEQQGEMARSGGRMLATLEPEQRAEIIHHLADLLTDQRDEILLANKKDLEEAEGRLAAPLLKRLSLSTSKLNSLAIGLRQIAASSQDSVGRVLRRTRIAKNLELEQVTVPIGVLLVIFESRPDCLPQVAALAIASGNGLLLKGGKEAAHSNRILHLLTQEALSIHGVKEAVQLVNTREEVEDLCRLDKMIDLIIPRGSSQLVRDIQKAAKGIPVMGHSEGICHMYVDSEASVDKVTRLVRDSKCEYPAACNALETLLIHRDLLRTPLFDQIIDMLRVEQVKIHAGPKFASYLTFSPSEVKSLRTEYGDLELCIEVVDNVQDAIDHIHKYGSSHTDVIVTEDENTAEFFLQHVDSACVFWNASTRFSDGYRFGLGAEVGISTSRIHARGPVGLEGLLTTKWLLRGKDHVVSDFSEHGSLKYLHENLPIPQRNTN | 0.9496 | -0.8261
HACD3 (protein, UniProt Q9P035 1-362, looked up) Very-long-chain …: MENQVLTPHVYWAQRHRELYLRVELSDVQNPAISITENVLHFKAQGHGAKGDNVYEFHLEFLDLVKPEPVYKLTQRQVNITVQKKVSQWWERLTKQEKRPLFLAPDFDRWLDESDAEMELRAKEEERLNKLRLESEGSPETLTNLRKGYLFMYNLVQFLGFSWIFVNLTVRFCILGKESFYDTFHTVADMMYFCQMLAVVETINAAIGVTTSPVLPSLIQLLGRNFILFIIFGTMEEMQNKAVVFFVFYLWSAIEIFRYSFYMLTCIDMDWKVLTWLRYTLWIPLYPLGCLAEAVSVIQSIPIFNETGRFSFTLPYPVKIKVRFSFFLQIYLIMIFLGLYINFRHLYKQRRRRYGQKKKKIH | 0.9389 | -0.3489

Continued, in another order:

Difference (log2), PP1 vs untreated [1] [log2] | Molecule | Difference (log2), untreated vs GFP (GFP-14-3-3β) [log2]
1.045 | YTHDF2 (protein, UniProt Q9Y5A9 2-579, looked up) YTH domain-containing family …: SASSLLEQRPKGQGNKVQNGSVHQKDGLNDDDFEPYLSPQARPNNAYTAMSDSYLPSYYSPSIGFSYSLGEAAWSTGGDTAMPYLTSYGQLSNGEPHFLPDAMFGQPGALGSTPFLGQHGFNFFPSGIDFSAWGNNSSQGQSTQSSGYSSNYAYAPSSLGGAMIDGQSAFANETLNKAPGMNTIDQGMAALKLGSTEVASNVPKVVGSAVGSGSITSNIVASNSLPPATIAPPKPASWADIASKPAKQQPKLKTKNGIAGSSLPPPPIKHNMDIGTWDNKGPVAKAPSQALVQNIGQPTQGSPQPVGQQANNSPPVAQASVGQQTQPLPPPPPQPAQLSVQQQAAQPTRWVAPRNRGSGFGHNGVDGNGVGQSQAGSGSTPSEPHPVLEKLRSINNYNPKDFDWNLKHGRVFIIKSYSEDDIHRSIKYNIWCSTEHGNKRLDAAYRSMNGKGPVYLLFSVNGSGHFCGVAEMKSAVDYNTCAGVWSQDKWKGRFDVRWIFVKDVPNSQLRHIRLENNENKPVTNSRDTQEVPLEKAKQVLKIIASYKHTTSIFDDFSHYEKRQEEEESVKKERQGRGK | 1.029
1.03 | SERBP1 (protein, UniProt Q8NC51 2-408, looked up) SERPINE1 mRNA-binding protein …: PGHLQEGFGCVVTNRFDQLFDDESDPFEVLKAAENKKKEAGGGGVGGPGAKSAAQAAAQTNSNAAGKQLRKESQKDRKNPLPPSVGVVDKKEETQPPVALKKEGIRRVGRRPDQQLQGEGKIIDRRPERRPPRERRFEKPLEEKGEGGEFSVDRPIIDRPIRGRGGLGRGRGGRGRGMGRGDGFDSRGKREFDRHSGSDRSSFSHYSGLKHEDKRGGSGSHNWGTVKDELTESPKYIQKQISYNYSDLDQSNVTEETPEGEEHHPVADTENKENEVEEVKEEGPKEMTLDEWKAIQNKDRAKVEFNIRKPNEGADGQWKKGFVLHKSKSEEAHAEDSVMDHHFRKPANDITSQLEINFGDLGRPGRGGRGGRGGRGRGGRPNRGSRTDKSSASAPDVDDPEAFPALA | -0.2637
1.025 | ZC3HAV1 (protein, UniProt Q7Z2W4 2-902, looked up) Zinc finger CCCH-type …: ADPEVCCFITKILCAHGGRMALDALLQEIALSEPQLCEVLQVAGPDRFVVLETGGEAGITRSVVATTRARVCRRKYCQRPCDNLHLCKLNLLGRCNYSQSERNLCKYSHEVLSEENFKVLKNHELSGLNKEELAVLLLQSDPFFMPEICKSYKGEGRQQICNQQPPCSRLHICDHFTRGNCRFPNCLRSHNLMDRKVLAIMREHGLNPDVVQNIQDICNSKHMQKNPPGPRAPSSHRRNMAYRARSKSRDRFFQGSQEFLASASASAERSCTPSPDQISHRASLEDAPVDDLTRKFTYLGSQDRARPPSGSSKATDLGGTSQAGTSQRFLENGSQEDLLHGNPGSTYLASNSTSAPNWKSLTSWTNDQGARRKTVFSPTLPAARSSLGSLQTPEAVTTRKGTGLLSSDYRIINGKSGTQDIQPGPLFNNNADGVATDITSTRSLNYKSTSSGHREISSPRIQDAGPASRDVQATGRIADDADPRVALVNDSLSDVTSTTSSRVDDHDSEEICLDHLCKGCPLNGSCSKVHFHLPYRWQMLIGKTWTDFEHMETIEKGYCNPGIHLCSVGSYTINFRVMSCDSFPIRRLSTPSSVTKPANSVFTTKWIWYWKNESGTWIQYGEEKDKRKNSNVDSSYLESLYQSCPRGVVPFQAGSRNYELSFQGMIQTNIASKTQKDVIRRPTFVPQWYVQQMKRGPDHQPAKTSSVSLTATFRPQEDFCFLSSKKYKLSEIHHLHPEYVRVSEHFKASMKNFKIEKIKKIENSELLDKFTWKKSQMKEEGKLLFYATSRAYVESICSNNFDSFLHETHENKYGKGIYFAKDAIYSHKNCPYDAKNVVMFVAQVLVGKFTEGNITYTSPPPQFDSCVDTRSNPSVFVIFQKDQVYPQYVIEYTEDKACVIS | -0.3627
1.025 | SLC25A3 (protein, UniProt Q00325 50-362, looked up) Solute carrier family 25 …: AVEEQYSCDYGSGRFFILCGLGGIISCGTTHTALVPLDLVKCRMQVDPQKYKGIFNGFSVTLKEDGVRGLAKGWAPTFLGYSMQGLCKFGFYEVFKVLYSNMLGEENTYLWRTSLYLAASASAEFFADIALAPMEAAKVRIQTQPGYANTLRDAAPKMYKEEGLKAFYKGVAPLWMRQIPYTMMKFACFERTVEALYKFVVPKPRSECSKPEQLVVTFVAGYIAGVFCAIVSHPADSVVSVLNKEKGSSASLVLKRLGFKGVWKGLFARIIMIGTLTALQWFIYDSVKVYFRLPRPPPPEMPESLKKKLGLTQ | 1.257
1.002 | RPN1 (protein, UniProt P04843 24-607, looked up) Dolichyl-diphosphooligosacchar …: ASSEAPPLINEDVKRTVDLSSHLAKVTAEVVLAHLGGGSTSRATSFLLALEPELEARLAHLGVQVKGEDEEENNLEVRETKIKGKSGRFFTVKLPVALDPGAKISVIVETVYTHVLHPYPTQITQSEKQFVVFEGNHYFYSPYPTKTQTMRVKLASRNVESYTKLGNPTRSEDLLDYGPFRDVPAYSQDTFKVHYENNSPFLTITSMTRVIEVSHWGNIAVEENVDLKHTGAVLKGPFSRYDYQRQPDSGISSIRSFKTILPAAAQDVYYRDEIGNVSTSHLLILDDSVEMEIRPRFPLFGGWKTHYIVGYNLPSYEYLYNLGDQYALKMRFVDHVFDEQVIDSLTVKIILPEGAKNIEIDSPYEISRAPDELHYTYLDTFGRPVIVAYKKNLVEQHIQDIVVHYTFNKVLMLQEPLLVVAAFYILFFTVIIYVRLDFSITKDPAAEARMKVACITEQVLTLVNKRIGLYRHFDETVNRYKQSRDISTLNSGKKSLETEHKALTSEIALLQSRLKTEGSDLCDRVSEMQKLDAQVKELVLKSAVEAERLVAGKLKKDTYIENEKLISGKRQELVTKIDHILDAL | 0.04558
0.9341 | TOMM22 (protein, UniProt Q9NS69 2-142, looked up) Mitochondrial import receptor …: AAAVAAAGAGEPQSPDELLPKGDAEKPEEELEEDDDEELDETLSERLWGLTEMFPERVRSAAGATFDLSLFVAQKMYRFSRAALWIGTTSFMILVLPVVFETEKLQMEQQQQLQQRQILLGPNTGLSGGMPGALPSLPGKI | -0.3585
